Results on four substances are retold here after patent US8153759B2, “Depsipeptide containing lactic acid residue” (National University Corporation Gunma University, priority 2006, dated 2012).

Non-standard residues stand in square brackets, D forms with d. No end group written: not given here. Hmb = valic acid residue (β-branched hydroxycarboxylic acid); Lac = C[C@H](O)C(=O)O

The data set can be described thus: Observation of temperature responsiveness by apparent absorbance (turbidity at 350 nm) of aqueous polymer solutions. Particulars: for temperature responsiveness (gelation/aggregation by heating, liquefaction by cooling): reversibility / aggregation temperature: aqueous solution 10 mg/mL; for temperature responsiveness (gelation/aggregation by heating, liquefaction by cooling): reversibility: temperature-increase and -decrease rate 1° C./5 minutes between 20° C. and 70° C., 350 nm; for aggregation temperature: rate 1° C./5 minutes, 350 nm (FIG. 9). Format: physicochemical. How it is done: (§1) FIG. 5 illustrates a graph obtained by the following procedure: an aqueous solution of poly(Gly-Ile-Gly-Lac-Pro) (SEQ ID NO: 7) (10 mg/mL) which is one embodiment of the present invention was put in a 1-mm-thick quartz cell for absorption spectra; the temperature was increased at a rate of 1° C./5 minutes between 20° C. and 70° C. and then decreased; transmittance (%) was measured with respect to a light of 350 nm at each temperature in a 1° C. interval; and a turbidity (%) obtained by subtracting the transmittance (%) from 100 was plotted.
FIG. 6 illustrates a graph obtained by the following procedure: an aqueous solution of poly(Ala-Ile-Gly-Lac-Pro) (SEQ ID NO: 8) (10 mg/mL) which is one embodiment of the present invention was put in a 1-mm-thick quartz cell for absorption spectra; the temperature was increased at a rate of 1° C./5 minutes between 20° C. and 70° C. and then decreased; transmittance (%) was measured with respect to a light of 350 nm at each temperature in a 1° C. interval; and a turbidity (%) obtained by subtracting the transmittance (%) from 100 was plotted.
as §1, with “FIG. 9” for “FIG. 5”, “of poly(Gly-Val-Gly-Lac-Pro)” for “of poly(Gly-Ile-Gly-Lac-Pro)”, “NO: 9)” for “NO: 7)”, “plotted. In addition, as a comparative example, a plot of an aqueous solution (10 mg/mL) of poly(Gly-Val-Gly-Hmb-Pro) was shown.” for “plotted.”
FIG. 10 illustrates a graph obtained by the following procedure: an aqueous solution of poly(Gly-Val-Gly-Lac-Pro) (SEQ ID NO: 9) which is one embodiment of the present invention with different concentrations (10, 20, 30, and 40 mg/mL) was put in a 1-mm-thick quartz cell for absorption spectra; the temperature was increased at a rate of 1° C./5 minutes between 20° C. and 70° C. and then decreased; transmittance (%) was measured with respect to a light of 350 nm at each temperature in a 1° C. interval; and a turbidity (%) obtained by subtracting the transmittance (%) from 100 was plotted.
FIG. 11 illustrates a graph obtained by the following procedure: an aqueous solution of poly(Gly-Val-Gly-Lac-Pro) (SEQ ID NO: 9) (40 mg/mL) which is one embodiment of the present invention was put in a 1-mm-thick quartz cell for absorption spectra; the temperature was increased at a rate of 1° C./5 minutes between 20° C. and 70° C. and then decreased; transmittance (%) was measured with respect to a light of 350 nm at each temperature in a 1° C. interval; and a turbidity (%) obtained by subtracting the transmittance (%) from 100 was plotted.
The change in temperature responsiveness of each polymer obtained in Examples 2 and 4 due to heating an aqueous solution of the polymer was observed by apparent absorbance. The wavelength for observation was 350 nm. The wavelength corresponds to phenomenon of light scattering, i.e. white turbidity, by visual observation. Here, spectrum of poly(Gly-Ile-Gly-Lac-Pro (SEQ ID NO: 7)) and poly(Ala-Ile-Gly-Lac-Pro) (SEQ ID NO: 8) are shown in FIG. 5 and FIG. 6, respectively. The ordinate axes each represent turbidity converted from the transmittance. From the figure, the temperature responsiveness rate can be compared. […] In addition, in comparison between the observation by visual observation and the measured turbidity, the polymer underwent aggregation adequately even when the turbidity exceeds about 10 to 20%. […] The solution was actually returned to a uniform solution finally by left standing at 4° C. for 1 to 2 days. The extremely slow responsiveness (return to a uniform solution) at a low temperature is a novel property that has not happened before. […]

On to “poly(Ala-Ile-Gly-Lac-Pro) (AIG[Lac]P; numbers in words are those of the source; also: polymerized repeat, ~10 units) [depsipeptide polymer, polymerization degree about 10 (molecular weight about 4,500)]”, for which the “temperature responsiveness (gelation/aggregation by heating, liquefaction by cooling): reversibility” value is reported as “irreversible temperature responsiveness for several hours even when cooled”. In addition, the “time left standing until aggregated solution returned to a uniform solution” value (aggregation state at high temperature transferred to low temperature, left standing at 4° C.) was in the range of 1 to 2 days.
For “poly(Gly-Ile-Gly-Lac-Pro) (GIG[Lac]P; numbers in words are those of the source; also: polymerized repeat, ~3 units) [depsipeptide polymer, polymerization degree about 3 (molecular weight about 1,200)]”, the “temperature responsiveness (gelation/aggregation by heating, liquefaction by cooling): reversibility” value is given as “reversible temperature responsiveness”.
“poly(Gly-Val-Gly-Hmb-Pro) (GVG[Hmb]P; also: polymerized repeat unit) [comparative depsipeptide polymer, Hmb=2-hydroxy-3-methylbutanoic acid (valic acid residue), reference compound]”: the aggregation temperature was 20-30 °C.
Consider “poly(Gly-Val-Gly-Lac-Pro) (GVG[Lac]P; also: polymerized repeat unit)”, for which the aggregation temperature is at least 70 °C. For the same substance, the “reversibility of phase transition phenomenon” value (aqueous solution 40 mg/mL, 1° C./5 minutes, 20-70° C. (FIG. 11)) is “reversible”. Further, the “aggregation temperature at increased concentration” value (aqueous solution, concentration increased in the range 10 to 40 mg/mL (FIG. 10)) is at most 70 °C. Moreover, the “concentration dependence of aggregation temperature” value (range of 10 to 40 mg/mL (FIG. 10)) is recorded as “decrease with the increase in the concentration”.
